Reference: a protein production outcome set (Wang et al. 2014)

Experiment: label from the status in PepcDB records
In the case of “MIKGGGGKSSGYSADLMVCFPSRAHLSLPSKSISSPSSSFNRRQNAPHHRRSISKLSSSGGGVRQNRGGGREVVEEPTSPKVTCAGQIKVRSSKRDGGGKNWQSLMAEIEKIHRSKSESKFFGIKRDVMGFLTCLRDFDFRCFGAFPPVDIISDDEEEDEEEEEEDEEEDEDESSGTVFSKWLMVLHEKQNNEECVDGKENVFSDVETAVPPPNALLLMRCRSAPVKNWSEEKKEETEEGDNRVKQSGEEEEEEKDRVGNKKDLRSLMEEEKKMNLVVMNYDTNYYKLSNDIAKETWVVGGIQDPLFRSRSWKK”, the protein production is reported as “failed”. With “MIKIAVIAGGSFDCLPEPADLYVGVDAGSLRLLDHSLPLDWAIGDFDSVTSEELGQIREMAEQFLQAPAEKDDTDLELALKEIFKAYPQAQVRIYGALGGRMDHMMSNLFLVAEPDLAAYMEQIELVDSQNVVRFRPAGSHRISPIAGMKYISFMPSDQSHLTIRYAKYPLDASNYFFKKCYASNEFIDRDIDIQLDQGYVVLIYSKDKD” the protein production was “failed”. With “MIKKFKNYDQIIKELFVIAIPTAFESLLFQMVTFFDNFMISYLGSFHVTGVSLANRVTFLFFIIVFGLGTALSAYVSQAIAKKKFLQVRQSFAYILLIGTTIGIIFFIFSFLFPRNIIKLFTANQDSLNFGSEYLKIISLSYVLMAYSFLSAMGFKSAKEVKIPLYVTSIVVLINIVFNYILIFGFSMGIKGAAYATVLARIVEFVFYFLYSLISSNSYYRIKFGDFFAPKVVTRANLKLIIPVLSHEIFWVLSITILHAFYARVGSIEYASFAVASNLFDICFVLLHGMGLATGVVIGHLMIYDKKHVRSVGFFLSFLGFLLGIFVVILLIGISSFAPYIFSKLDSPELVSVFIYVFASIVIFKAFTAQVLVGVFRASGIPNVCFFIESGVIVFYTLPVAYLLVFYTNLSLPIVVFIVNLEEIIKNIFIIIEFFHDDWIREIEYEELA” the protein production was “failed”. With “MIKLKNDRLEVEIDNMGAQLTHVIGNESGYDYIWNGDAWKKHAPILFPAIGKSNNDEYVVDGKTYRMPQHGFARDFDWQKVNQAENRVMLELKSNAKTKEMFPFDFTLQVEYKLDQNQLLIGYRVINNDQRMMPYALGSHPAFNLPIDDDGVFEDYRLTFGPKQKQIKRLGVGPIPFRDGTEAPYPSIQASELALNHEMFDDGLIILNAKKLENVTLHSNQTAHEVKLNIKQFPYLTLWAMEHETQPFICIEPFAGLPDQASDQPTDWNNKKGNNLLEAGESHTFEYGIEFK” the protein production was “failed”. With “MIKLNRDQKLTYKFLIIPIALLILSFNPYTESLEFSLPAVYMASHYAVYFSGLYIGYKYFKGGYISLILGLIPAVLWHSPYFFSLGAAMLDYRILLEITLLFGGVLLGSSINSMRLQIKITLLALWMLGDSILAILFITSTPLYSNLAYPFSPYTPSSLPLAGILMFVIMNVFLIYVISKFMKSIIG” the protein production was “failed”. In the case of “MIKRLKVNVIDLSSLVYLIFAVIPLFTFDLKGPYWMYVIIFIIFTISYTALAIFTEVLSTKMIYTFLILHYIGITYLVYSVGPATSLFFFFSSFILPYVLKVKMKSIAFLIFIVVMLINFILIYVADPLSLGFIAVMHIAILLITVGNFKQSETIKMKNALEEKNKHINVLIAEQERNRIGQDLHDTLGHVFASSSIKSELAIKLIDSDSEKAKLQMIEVNNISKESLNKVRSIVNDLKIQSFEEEVASMETLLKNANLNFEFFNAELAKGISPAKQAILAMILREAINNVLKHAHATSVTGSLTETQNDITLTIIDNGIGMDDLKEHDLKSIKERVALMNGSIEIQSNHGLCISIKISRGDA”, the protein production is reported as “failed”. With “MIKRLTISPLFLILSLIAYYLSRNDILLYSTLSTILFWTFIILILPTSFYNYIKDGIVKYCKKKIFWFTVGLYISYHVILYSFFFYLLLPGSIKNISFWFSFNAGIGYSIPPPITYFLEWVSNSPAIWFFIGPYEGDVIPFSTFLGVVLALLIGLNVMKILELWGISNKLSKSIVLIPSLGVVSGSSCCVFLPSIVMYSIALSISSITATILSILSSFAYFILAYYALPIVSAIVLFHNLTMLNRLIKKLSFTM” the protein production was “failed”. In the case of “MIKSSSKIGLAFFVRPQFDVDLAKNFFNKVQDSLKEAGIATQVFELPVSTDAEALSLAESVNSHQDLHGLIVVQGTFCDASLILNLASNINLPIMIWATKEQPTGGRLSLNSFCGLNLGAHTLVNAGIKFKGVYGSPGSPAVIKKVTSFARAAGAVKWLKGKRIGLFGHRPSGYYPSNFNEILLRKQFGITVEYLSLSEVFSLAQKMEIKDIQPFINTLVGVEGLEMVSTSKSVQAYLALKELIAQKALDAVAVECWPEFMAGFGGAVCYALSRLNDEGIVAACEADVNGAVTMLLGSYLSSQANFIADLVGAEEEQNQLIFWHCGNGPLSLAAPGTNPVAGVHPNRKTPLAMYFPLKGGPVTVSRLSSDHNGNLRLFLGSGTGIETDLLYSGNSLPIQISGSVEETLDTILCEGIEHHYIVTYGDLTSEFREIAELLGLRMITFLEHHHHHH”, the protein production is reported as “failed”. In the case of “MILAIDLGTSGAKAAIIDSAGAVHEQTFVPYSTTKLPNGGVEQDPMQWVSAARQAVTRLPRSYSVVSFTGQMQDLICLDRAGRPLGQALLYNDARAAAEAARLNTVVPEWKDITGNRQTATSTAAMWLRLMEQSD”, the protein production is reported as “failed”. For “MILEFKSEKKMINFSKSFFYPLPIGKIFVLSGDMGSGKTSFLKGLALNLGISYFTSPTYNIVNVYDFINFKFYHIDLYRVSSLEEFELVGGLEILMDLDSIIAIEWPQIALSIVPKDRLFSLTFKIVGSGRVVELNGLEHHHHHH”, the protein production was “not failed”. With “MILGIDIGGANTKITELHENGEFKVHHLYFPMWKNNDKLAEVLKTYSKDISHVALVTTAELADSYETKKEGVDNILNAAESAFGSNISVFDSDGNFISLEGAKTNYMKVSASNWCGTAKWVSKNIEENCILVDMGSTTTDIIPIVDGKVVAEKTDLERLMNHELLYVGTLRTPISHLGNTILFKGVNTNVSSEYFAITADISVVLEKVTTEEYTCDTPDGKGTDKRSSLVRISKVLCSDLDQISEIDAENIAKTYYELWKELILENVKKVAEKYGSKKVVITGIGENILKDALGDFEVISVAERYGKDVSLATPSFAVAELLKNELLEHHHHHH” the protein production was “not failed”. For “MILINKRAEKQDYQTILAIWEKSVIVTHDFLTAEDRQFYKEQIPLFLDNVELFLWFAGEEVIGFSGTSERELDMLFLDPVATGNGYGSQILGWLIENKRINLVDVNEQNENATRFYLKHGFVVSSRSDLDGFGKPYPILQLQLK”, the protein production was “not failed”. For “MILKRAYDVTPQKISTDKVRGVRKRVLIGLKDAPNFVMRLFTVEPGGLIDRHSHPWEHEIFVLKGKLTVLKEQGEETVEEGFYIFVEPNEIHGFRNDTDSEVEFLCLIPKEGGE”, the protein production was “not failed”. For “MILLKSLYKGFFAAMKEENFEARCYNREKGGCVLIKTMQYKKTMATVVALIVALLLFGLIYDLLGVQKNELAAQKSAQPKVKTARVVANGDILIHDILYMSARKADDTYDFTPYFEYVKDWISGADLAIGDYEGTISPDYPLAGYPLFNAPEEIAGALKNTGYDVVDLAHNHILDSQLDGALNTKKVFHQLGIDSIGIYDKDRSKESFLIKNVNGIKIAILGYSYGYNGMEATLSQEDYEKHMSDLDEAKIKKELQLAEKKADVTIVMPQMGTEYALEPTAEQKELYHKMIDWGADVVLGGHPHVIEPSETVIKGRQKKFIIYSMGNFISNQRLETVDDIWTERGLLMDLTFEKKDNKTKIKTVEAHPTMVLAKGKGIVGKEGFELYNYRTMVLEDFIKGGKYHDKIDEETKAKVALAYQEINDLVNLKW”, the protein production was “failed”. For “MILLTSVLAIVSVILLTLPLLEAYSLNSSLVGGAVSPGATYSYKMNAVLINFYHNNSISHLLGNFSFTTGYINITMENGYATFSVKLYGQPAGENVTLADSFVLKASDHSSLFESFFPSGLVEAGEFVNVFNNTGQYYGAASAFSSVNVGKGTLFSTSQMVKLINVPEQPSGYFENVSRELNANSVYYIESPSHSFLSHIVFTGNSTVISALLGSSSVSNVTLLYISLEKTDVAVETLNVMHYVMHYIAVVVILWILGVVYMISLYRRVSLKQRR”, the protein production was “failed”. For “MILNILLNLAIFIIPSLAVWNQIILYIFGKSGDIANLILLNNESNLPKLSIIVPTKGERIEVIQGLIDNIHEAIWDRNKLEIIIVSDDEQEYFDKLLSTLIIPPDLDVRIFRREKKLGYKSGALAFGLQKSTGDLILTLDVDARIEKDSLIKAYNHMVNLGCDAITMEWHGYSNISTSLAKALMVSTVLTSKSILRGRDKLGLKVLPIGCGTIYKRSALEAVNGWDYKMIQDDYELGARLINKGFKVCASSSPVYVEVPDNLIAFYVQQTRWAMGTMEVLYWRFKYIISSDIKLWQKLEIIAYLSQYIPIILTFISAIIFAIAGFVGIRLSMNLPMFIIWAITLSIYASIFVNSAKKSGIDTVTAIKALGRLSAYTVGISPFLLIGTINAFKKTRTYIVTPKGKKAKSNIGYPILAFGVFFILSAFLYMFRGDFLTFIWLAYYSIAFLYTFIAYIKGL”, the protein production was “failed”. In the case of “MILSAEQSFTLRHPHGQAAALAFVREPAAALAGVRFLRGLDSDGEQVWGELLVTVPLLGEVDLPFRSEIVRTPQGAELRPLTLTGERAWVAVSGQATAAEGGEMAFAFQFQAHLATPEAEGWGGAAFEKMVQAAAGRTLERVAKALPEGLAAGLPPA”, the protein production is reported as “not failed”. For “MILSLNLLHKISPKLKKIPLNELCAALMDLGCEVETINSIKPSTNLVFAKVLEKTRHPNANHLNLVKVKANQKVYEIVCGANNFSVHNWVVLAKLNAELANGLKITPRELRGYVSNGMLCAYSEINPQATSFLTSTDLDGILVLDDNYDHYKTPNQIFNLDDVILDLSIPSNRNDLNGYFWIAKELCAYFDFEYVVDATINHRPHKEIIDVRILSDDVNSYGIIEVKNIQNYILKWNTKSILINNQIKVLNNFADNMNFLTLLTANPLHAFDARKISGQIVVKNAEEDAILLGLDQKEYLIKKGDLIIVDDQKILALAGIIGSNDSKIDATSTTAYIECANFNPMLIANTARRLKINTAAAMRFSKPLTNYVTKVTLKKLLANFKSDAKLIYYFKHSVHNVIKNKINQVSDFVGAEIDLDTAQTFLKRLGYKINKSNLITPSHRYDVLNEFDVYEDIMKKISIQEIKPQPISFDILNFENNLAYDFEKKVSDFLVDQGLFECKTYNLKNQTQAHEFNFFNFKQAYEINNPTSNMRSHLKLNNLNSLLEVLEYNQNQKNELENIFEISKINPVDSSQQTVLSIILCKPLINSKINDSLIVNNFVTTKALLHALLTKLNIDYAYDKNHVVNELYDNNQLALINANKQVFGFIGQLKNQVKKTYGLSNDIFIINLNLTSYLNQKQVITKVIKPSMYHDVIRDISVKLASDVDLNNIIANIKKIKNIRKVEISDLYIKDDGIIYTFKYYINDHLSNLSSEQIIIIEQEVNNYLKQF”, the protein production was “failed”. In the case of “MILSNYFKFLSHQLKGWPQQNYYLFYFSLGCQVMTLVSAPITALSILTFIGTTLGVLCVLAINAAKSVNGLLGVISAACFIVVGFSAKNYLSIGEQLAYVVTLDIPVLLSANWNVNMVSKIRKFTGKTWIVAIVATLVVYAISGYLIGALTDDPRPWVDAISFAICLTAGVICFLRYNNQYFWWIASGLAQMVLWFISFRQGSATLAMFINSSVYLMNDVLAFTVSPWYNKHERARLMAEEQAASDAASADASDNQAFGLNH”, the protein production is reported as “failed”. In the case of “MILTVGNTKGGVGKTTLAVNLAVERFLAGKDVLLIDADNQRTSSAFSALRESLHGQTGYTCIELSGSAVHQQGRNLAPKYDEVIIDVGGRDTSALRGALAISDIALVPFAVGTFDIWAAEDIGRLIEEARGFNPTLRAFSVLNMADPAGGDNADAAGLLTETSALVYLRASLVRRKAMRNAAAAGLGVLEMTGSSRDSKACGEVGYLAELLYNKLNLEHHHHHH”, the protein production is reported as “failed”.
